The results in this text go back to paper doi:10.1101/2024.07.31.606000.

In the assay the target is recombinant full-length thrombospondin-1 (human) (UniProt P07996). As to the kind of experiment: SPR. For orientation: Surface plasmon resonance follows binding to a sensor surface in real time, without labels.
Sequence of recombinant full-length thrombospondin-1 (human) (P07996 19-1170): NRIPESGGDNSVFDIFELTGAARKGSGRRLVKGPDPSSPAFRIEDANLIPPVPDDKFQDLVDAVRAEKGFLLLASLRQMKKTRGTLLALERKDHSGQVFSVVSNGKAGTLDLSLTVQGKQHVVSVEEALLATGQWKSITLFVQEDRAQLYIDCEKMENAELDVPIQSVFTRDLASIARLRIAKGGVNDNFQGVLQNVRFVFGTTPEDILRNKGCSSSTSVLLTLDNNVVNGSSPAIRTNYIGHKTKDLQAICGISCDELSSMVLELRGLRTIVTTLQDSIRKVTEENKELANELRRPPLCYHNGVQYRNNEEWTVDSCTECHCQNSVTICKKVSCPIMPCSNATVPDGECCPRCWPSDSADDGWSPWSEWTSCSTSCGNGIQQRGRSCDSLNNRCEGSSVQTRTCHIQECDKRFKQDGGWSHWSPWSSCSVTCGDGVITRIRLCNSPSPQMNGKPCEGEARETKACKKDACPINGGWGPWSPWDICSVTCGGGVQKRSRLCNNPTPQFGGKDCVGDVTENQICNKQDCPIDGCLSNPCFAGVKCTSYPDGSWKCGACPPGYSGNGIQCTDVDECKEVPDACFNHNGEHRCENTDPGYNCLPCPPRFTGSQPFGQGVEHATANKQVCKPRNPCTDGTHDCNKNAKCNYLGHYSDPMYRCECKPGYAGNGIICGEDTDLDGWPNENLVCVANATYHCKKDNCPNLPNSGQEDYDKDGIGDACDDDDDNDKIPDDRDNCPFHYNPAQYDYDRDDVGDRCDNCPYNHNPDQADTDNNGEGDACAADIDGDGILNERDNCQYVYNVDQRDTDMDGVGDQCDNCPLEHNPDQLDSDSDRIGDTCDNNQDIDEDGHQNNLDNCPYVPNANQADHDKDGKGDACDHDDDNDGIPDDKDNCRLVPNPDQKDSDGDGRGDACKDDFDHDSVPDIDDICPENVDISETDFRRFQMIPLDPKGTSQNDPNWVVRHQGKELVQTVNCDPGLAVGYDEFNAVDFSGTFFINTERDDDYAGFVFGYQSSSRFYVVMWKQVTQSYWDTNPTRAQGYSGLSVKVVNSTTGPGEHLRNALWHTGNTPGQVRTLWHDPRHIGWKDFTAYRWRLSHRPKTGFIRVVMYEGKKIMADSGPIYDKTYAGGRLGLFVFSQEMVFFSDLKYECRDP

For complement C3 (natural protein), the Kd – broadly, the constant that tells how readily two partners part at equilibrium – was 0.127 µM.
The value for complement C5 (natural protein) was 0.047 µM.
